# Assay results as given in IntAct's records for PubMed 10228159.
# B1: Protein E7 (Human papillomavirus type 16), P03129 (parent)
# chain: MHGDTPTLHEYMLDLQPETTDLYCYEQLNDSSEEEDEIDGPAGQAEPDRAHYNIVTFCCKCDSTLRLCVQSTHVDIRTLEDLLMGTLGIVCPICSQKP
# B2: Protein E7 (Human papillomavirus type 16), P03129 (parent)
# chain: B1 chain
# partner: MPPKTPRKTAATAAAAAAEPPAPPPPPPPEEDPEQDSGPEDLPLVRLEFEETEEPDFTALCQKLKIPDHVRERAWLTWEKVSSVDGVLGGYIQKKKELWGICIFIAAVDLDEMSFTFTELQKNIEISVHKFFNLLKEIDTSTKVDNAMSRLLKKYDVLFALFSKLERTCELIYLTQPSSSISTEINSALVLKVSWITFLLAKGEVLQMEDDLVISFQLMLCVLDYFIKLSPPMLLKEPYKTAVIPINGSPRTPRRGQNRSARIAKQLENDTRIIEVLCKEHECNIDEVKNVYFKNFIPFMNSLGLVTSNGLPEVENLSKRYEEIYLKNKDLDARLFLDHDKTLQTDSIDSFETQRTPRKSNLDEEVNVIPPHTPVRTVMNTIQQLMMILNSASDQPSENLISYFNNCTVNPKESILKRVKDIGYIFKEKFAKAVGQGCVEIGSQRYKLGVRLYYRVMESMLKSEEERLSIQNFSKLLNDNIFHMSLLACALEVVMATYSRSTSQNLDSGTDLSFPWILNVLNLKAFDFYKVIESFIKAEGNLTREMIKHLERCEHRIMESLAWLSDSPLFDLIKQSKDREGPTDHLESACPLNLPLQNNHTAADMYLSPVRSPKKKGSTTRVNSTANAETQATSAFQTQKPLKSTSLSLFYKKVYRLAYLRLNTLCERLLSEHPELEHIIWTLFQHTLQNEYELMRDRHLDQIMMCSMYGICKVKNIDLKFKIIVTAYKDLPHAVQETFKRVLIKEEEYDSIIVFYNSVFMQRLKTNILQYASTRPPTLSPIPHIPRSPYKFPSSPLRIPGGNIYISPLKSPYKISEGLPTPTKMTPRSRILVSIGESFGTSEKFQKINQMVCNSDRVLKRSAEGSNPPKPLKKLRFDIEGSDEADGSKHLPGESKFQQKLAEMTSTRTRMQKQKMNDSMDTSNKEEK
# Variants of: B1
# Conditions: with chd4_human CHD4, Q14839
# Sequence of chd4_human CHD4, Q14839 (Q14839 whole entry): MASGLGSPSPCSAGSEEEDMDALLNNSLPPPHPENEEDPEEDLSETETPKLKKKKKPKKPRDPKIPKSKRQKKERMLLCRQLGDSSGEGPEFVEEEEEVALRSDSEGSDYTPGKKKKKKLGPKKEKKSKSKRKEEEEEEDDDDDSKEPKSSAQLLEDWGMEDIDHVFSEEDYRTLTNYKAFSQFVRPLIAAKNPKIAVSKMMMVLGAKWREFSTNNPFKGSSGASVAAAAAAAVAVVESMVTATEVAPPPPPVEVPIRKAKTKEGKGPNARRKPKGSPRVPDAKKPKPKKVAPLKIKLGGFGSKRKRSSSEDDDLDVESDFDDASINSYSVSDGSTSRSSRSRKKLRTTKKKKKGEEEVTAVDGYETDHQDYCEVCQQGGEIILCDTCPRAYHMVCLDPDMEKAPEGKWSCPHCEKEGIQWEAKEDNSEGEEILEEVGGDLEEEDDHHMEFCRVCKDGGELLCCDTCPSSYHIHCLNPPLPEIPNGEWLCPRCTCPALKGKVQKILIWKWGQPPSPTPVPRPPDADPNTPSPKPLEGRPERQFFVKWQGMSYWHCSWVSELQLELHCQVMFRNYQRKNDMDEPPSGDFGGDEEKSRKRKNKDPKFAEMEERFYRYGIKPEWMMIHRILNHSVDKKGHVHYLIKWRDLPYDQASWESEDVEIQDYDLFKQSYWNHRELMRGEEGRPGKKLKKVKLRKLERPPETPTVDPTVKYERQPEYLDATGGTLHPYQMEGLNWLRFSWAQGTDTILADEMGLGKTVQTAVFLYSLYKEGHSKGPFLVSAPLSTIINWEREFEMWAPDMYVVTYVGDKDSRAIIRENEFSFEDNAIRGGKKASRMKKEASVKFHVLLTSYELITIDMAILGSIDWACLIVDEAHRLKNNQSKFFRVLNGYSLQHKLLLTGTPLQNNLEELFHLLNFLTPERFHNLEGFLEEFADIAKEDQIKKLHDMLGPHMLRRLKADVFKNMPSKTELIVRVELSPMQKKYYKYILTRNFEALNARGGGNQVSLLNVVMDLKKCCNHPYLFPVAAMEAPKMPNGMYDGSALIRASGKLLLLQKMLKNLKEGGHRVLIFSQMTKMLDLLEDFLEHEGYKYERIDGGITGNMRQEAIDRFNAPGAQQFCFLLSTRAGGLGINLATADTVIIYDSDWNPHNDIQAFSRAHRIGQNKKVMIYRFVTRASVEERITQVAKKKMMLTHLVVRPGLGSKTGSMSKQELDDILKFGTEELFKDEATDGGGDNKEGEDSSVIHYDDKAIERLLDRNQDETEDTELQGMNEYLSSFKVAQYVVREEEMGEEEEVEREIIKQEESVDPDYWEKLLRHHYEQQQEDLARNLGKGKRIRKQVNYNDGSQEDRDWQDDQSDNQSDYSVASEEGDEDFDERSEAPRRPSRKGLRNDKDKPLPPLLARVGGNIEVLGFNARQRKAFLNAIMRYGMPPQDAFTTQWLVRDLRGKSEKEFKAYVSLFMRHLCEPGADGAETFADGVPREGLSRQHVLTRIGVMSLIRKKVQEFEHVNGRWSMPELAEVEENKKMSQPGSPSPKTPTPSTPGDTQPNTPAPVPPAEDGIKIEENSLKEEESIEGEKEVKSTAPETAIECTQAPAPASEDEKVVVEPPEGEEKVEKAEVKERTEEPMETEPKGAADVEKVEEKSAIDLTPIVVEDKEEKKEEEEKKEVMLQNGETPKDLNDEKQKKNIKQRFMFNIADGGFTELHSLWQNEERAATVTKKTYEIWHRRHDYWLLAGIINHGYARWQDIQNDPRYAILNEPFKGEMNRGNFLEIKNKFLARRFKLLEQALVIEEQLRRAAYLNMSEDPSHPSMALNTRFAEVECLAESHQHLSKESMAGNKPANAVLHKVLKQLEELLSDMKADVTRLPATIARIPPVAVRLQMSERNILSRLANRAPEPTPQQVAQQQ
row,Variant,effect of a mutation on the interaction
1,L67R,decreasing interaction

# Variants of: B2
# Conditions: with rb_human RB1, P06400
row,Variant,effect of a mutation on the interaction
1,L67R,decreasing interaction
